# Data from article PMC13397619.
# B1: NLV2 TCR alpha chain (CDR3α only) (parent)
# chain: AGPMKTSYDKVI
# partner: NLVGMVATV
# Variants of: B1
# Experiment: T-Switch: Jurkat TCRβ−/− cells expressing a CDR3 saturation-mutagenesis library, stained with two peptide-HLA-A*02:01 tetramers (original and novel peptide) plus anti-CD3, FACS-sorted into four gates, gDNA sequenced
# Conditions: with HLA-A*02:01 with peptide … (NLV 2-2, the original bait), tetramers 1 µg/mL, 30 min on ice, DP and SW gates expanded about 10 days between rounds ('two to three rounds of selection' in the Methods), gate SP: higher = more of the variant in the gate that binds the original peptide and not the novel one = retained original binding. Fold enrichment of the CDR3 variant in one FACS gate of a two-tetra, unresolved parent, parent is a CDR3 fragment, scale: fold enrichment, numbering: sequential-on-construct, sequence …
row,Variant,enrichment
1,[…] (CDR3 as printed); P3I derived by comparing it with the table's wild-type CDR3 AGPMKTSYDKVI,1.59
2,[…] (CDR3 as printed); K5M derived by comparing it with the table's wild-type CDR3 AGPMKTSYDKVI,4.77
3,[…] (CDR3 as printed); K5A derived by comparing it with the table's wild-type CDR3 AGPMKTSYDKVI,23.5
4,[…] (CDR3 as printed); D9S derived by comparing it with the table's wild-type CDR3 AGPMKTSYDKVI,0
5,[…] (CDR3 as printed); P3M derived by comparing it with the table's wild-type CDR3 AGPMKTSYDKVI,0
6,[…] (CDR3 as printed); M4S derived by comparing it with the table's wild-type CDR3 AGPMKTSYDKVI,7.99
7,[…] (CDR3 as printed); K10I derived by comparing it with the table's wild-type CDR3 AGPMKTSYDKVI,0
8,[…] (CDR3 as printed); V11L derived by comparing it with the table's wild-type CDR3 AGPMKTSYDKVI,0
9,[…] (CDR3 as printed); A1S derived by comparing it with the table's wild-type CDR3 AGPMKTSYDKVI,0.551
10,[…] (CDR3 as printed); V11W derived by comparing it with the table's wild-type CDR3 AGPMKTSYDKVI,0
11,[…] (CDR3 as printed); S7V derived by comparing it with the table's wild-type CDR3 AGPMKTSYDKVI,0
12,[…] (CDR3 as printed); G2T derived by comparing it with the table's wild-type CDR3 AGPMKTSYDKVI,10.1
13,[…] (CDR3 as printed); D9P derived by comparing it with the table's wild-type CDR3 AGPMKTSYDKVI,0
14,[…] (CDR3 as printed); V11I derived by comparing it with the table's wild-type CDR3 AGPMKTSYDKVI,5
15,[…] (CDR3 as printed); D9M derived by comparing it with the table's wild-type CDR3 AGPMKTSYDKVI,0.433
16,[…] (CDR3 as printed); K5F derived by comparing it with the table's wild-type CDR3 AGPMKTSYDKVI,0
17,[…] (CDR3 as printed); K5S derived by comparing it with the table's wild-type CDR3 AGPMKTSYDKVI,4.22
18,[…] (CDR3 as printed); D9R derived by comparing it with the table's wild-type CDR3 AGPMKTSYDKVI,0
19,[…] (CDR3 as printed); Y8D derived by comparing it with the table's wild-type CDR3 AGPMKTSYDKVI,0
20,[…] (CDR3 as printed); A1V derived by comparing it with the table's wild-type CDR3 AGPMKTSYDKVI,0
21,[…] (CDR3 as printed); A1H derived by comparing it with the table's wild-type CDR3 AGPMKTSYDKVI,1.05

row,Variant,enrichment
1,[…] (CDR3 as printed); V11S derived by comparing it with the table's wild-type CDR3 AGPMKTSYDKVI,1.91
2,[…] (CDR3 as printed); M4W derived by comparing it with the table's wild-type CDR3 AGPMKTSYDKVI,0
3,[…] (CDR3 as printed); G2C derived by comparing it with the table's wild-type CDR3 AGPMKTSYDKVI,0
4,[…] (CDR3 as printed); M4V derived by comparing it with the table's wild-type CDR3 AGPMKTSYDKVI,18.1
5,[…] (CDR3 as printed); T6E derived by comparing it with the table's wild-type CDR3 AGPMKTSYDKVI,0
6,[…] (CDR3 as printed); G2K derived by comparing it with the table's wild-type CDR3 AGPMKTSYDKVI,0
7,[…] (CDR3 as printed); D9K derived by comparing it with the table's wild-type CDR3 AGPMKTSYDKVI,0
8,[…] (CDR3 as printed); Y8K derived by comparing it with the table's wild-type CDR3 AGPMKTSYDKVI,0
9,[…] (CDR3 as printed); A1T derived by comparing it with the table's wild-type CDR3 AGPMKTSYDKVI,0.262
10,[…] (CDR3 as printed); K5G derived by comparing it with the table's wild-type CDR3 AGPMKTSYDKVI,12.9
11,[…] (CDR3 as printed); S7G derived by comparing it with the table's wild-type CDR3 AGPMKTSYDKVI,0
12,[…] (CDR3 as printed); Y8L derived by comparing it with the table's wild-type CDR3 AGPMKTSYDKVI,0
13,[…] (CDR3 as printed); K10N derived by comparing it with the table's wild-type CDR3 AGPMKTSYDKVI,0
14,[…] (CDR3 as printed); V11Y derived by comparing it with the table's wild-type CDR3 AGPMKTSYDKVI,0
15,[…] (CDR3 as printed); A1R derived by comparing it with the table's wild-type CDR3 AGPMKTSYDKVI,0
16,[…] (CDR3 as printed); K5T derived by comparing it with the table's wild-type CDR3 AGPMKTSYDKVI,4.91
17,[…] (CDR3 as printed); Y8T derived by comparing it with the table's wild-type CDR3 AGPMKTSYDKVI,0.942
18,[…] (CDR3 as printed); I12R derived by comparing it with the table's wild-type CDR3 AGPMKTSYDKVI,0
19,[…] (CDR3 as printed); I12C derived by comparing it with the table's wild-type CDR3 AGPMKTSYDKVI,0
20,[…] (CDR3 as printed); M4I derived by comparing it with the table's wild-type CDR3 AGPMKTSYDKVI,18.9
21,[…] (CDR3 as printed); G2D derived by comparing it with the table's wild-type CDR3 AGPMKTSYDKVI,0
